Data as given in article PMC5762392 (Nature biotechnology, 2017).
Non-standard residues stand in square brackets, D forms with d. No end group written: not given here. *: point of attachment. Biotin = O=C1N[C@H]2[C@H](CS[C@H]2CCCCC(=O)*)N1; Lys(Me2) = CN(C)CCCC[C@H](N)C(=O)O

Target: MBP fused to the Tudor domain (residues 1484–1603) of 53BP1 (human, UniProt Q12888 1484-1603)
Assay: pull-down

MBP fused to the Tudor domain (residues 1484–1603) of 53BP1, sequence (Q12888 1484-1603): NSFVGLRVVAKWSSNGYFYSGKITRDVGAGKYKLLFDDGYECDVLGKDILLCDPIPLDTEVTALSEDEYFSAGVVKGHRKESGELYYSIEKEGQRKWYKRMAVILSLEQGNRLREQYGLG

- IC50: 100 to 300 µM
Binder: {Biotin-Mini‑PEG}-YGKGGAKRHR[Lys(Me2)]VLRD [biotin-labeled peptide derived from histone H4K20me2]
